“And” between values parts separate entries of the source, which are not always exact repeats. Equal values may be shown once.
Target: NRC4 (NLR required for cell death 4) with the mutations L9E and D478V
Test: cryo-EM structure

“NRC4 (NLR required for cell death 4) with the mutations L9E and D478V (natural protein)” was tested, and the stoichiometry N was 6 and 12.
